# Laboratory results: PMC7573392, “Monitoring Allosteric Interactions with CXCR4 Using NanoBiT Conjugated Nanobodies” (Cell Chemical Biology, 2020)
# Marks after values point to notes of the source that are not given here.
# T1: LgBiT-tagged human CXCR4 receptor ( | human, UniProt P61073 2-352, CXCR4 portion only (initiator Met removed (so in the source)); this part carries VUN400, CXCL12, AMD3100 and IT1t binding. Left out: the 5-HT3A signal sequence (presumed cleaved), the N-terminal LgBiT report)
# T1 chain: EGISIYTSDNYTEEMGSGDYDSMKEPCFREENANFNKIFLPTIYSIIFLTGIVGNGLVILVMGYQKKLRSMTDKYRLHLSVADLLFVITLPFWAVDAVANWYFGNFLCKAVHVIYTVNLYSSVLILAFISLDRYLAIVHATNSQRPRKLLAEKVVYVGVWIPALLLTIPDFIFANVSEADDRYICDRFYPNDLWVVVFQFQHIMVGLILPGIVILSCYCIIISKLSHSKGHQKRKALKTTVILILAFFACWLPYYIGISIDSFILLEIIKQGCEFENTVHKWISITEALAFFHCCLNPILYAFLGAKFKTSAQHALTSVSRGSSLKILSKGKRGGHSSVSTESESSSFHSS
# B1: purified HiBiT-HaloTag fusion protein (peptide)
# chain: VSGWRLFKKIS
# notes: Fusion protein of circa 34 kDa; also called HiBiT-HaloTag control protein; source: bought: Promega (Cat# N3010)
# Columns and labels:
# LgBiT-CXCR4 [1] = target: T2, LgBiT-CXCR4 (Homo sapiens, UniProt P61073); assay: NanoBiT nanobody displacement binding assay, whole HEK293 cells expressing LgBiT-CXCR4
# T2 construct: GSSG linker and TEV recognition site (EDLYFQS), between LgBiT and CXCR4 (N); expressed in transfected cells; whole cells in A1-A4, isolated membranes in A9/A10
# Experimental: (§1) Full nanobody displacement assays were performed in HEK293 cells stably expressing either the LgBiT-CXCR4 or SNAP-CXCR4 constructs. Cells (30,000 per well) were plated in white 96-well poly-D-lysine coated plates as described above. After 24 hours, media was removed and replaced with 100 μl HBSS. Increasing concentrations of displacing ligands were added to the cells. […] The cells were incubated at 37°C for 2 and a half hours in total. […] Furimazine (1:400 final concentration) was added to each well and the plate was incubated for a further 15 minutes at 37°C. Luminescence was measured using the PHERAstar FS plate reader.
# [2] = tested on: T3, endogenous, untagged CXCR4; assay: Nanobody displacement assay in Jurkat T cells (endogenous CXCR4); assay type: binding, human; conditions: 100 nM VUN400-HiBiT with competing ligand 2 h, washed, exogenous LgBiT added, p < 0.05
# T3 construct: these cells express high levels of CXCR4 endogenously; host or cells: Jurkat T cells (clone E6-1)
# Experimental: Nanobody displacement assays in T-cells were performed by seeding 100,000 Jurkat cells per well into V-bottom 96-well plates in 100μl warm HBSS. Cells were treated with 100 nM VUN400-HiBiT and competing ligands simultaneously and incubated for 2 hours at 37°C. The cells were pelleted by centrifugation at 300g for 5 minutes and the supernatant removed and replaced with 200 μl fresh HBSS. Cells were resuspended via shaking at 1000 r.p.m on an orbital plate shaker for 2 minutes. This wash step was repeated two more times to remove unbound VUN400-HiBiT. The cells were treated with 20 nM exogenous LgBiT and furimazine (1:400 final concentration) and transferred to white 96-well plates and luminescence read using a PHERAstar FS plate reader.
# SNAP-CXCR4 [3] = target: T4, SNAP-CXCR4 (Homo sapiens, UniProt P61073); assay: NanoBiT nanobody displacement binding assay, whole HEK293 cells expressing SNAP-CXCR4 (exogenous LgBiT added after washing); set-up: expressed in transfected cells; host or cells: HEK293G cells stably expressing SNAP-CXCR4 (gift of Dr. J. Goulding, University of Nottingham)
# T4 sequence (P61073 whole entry): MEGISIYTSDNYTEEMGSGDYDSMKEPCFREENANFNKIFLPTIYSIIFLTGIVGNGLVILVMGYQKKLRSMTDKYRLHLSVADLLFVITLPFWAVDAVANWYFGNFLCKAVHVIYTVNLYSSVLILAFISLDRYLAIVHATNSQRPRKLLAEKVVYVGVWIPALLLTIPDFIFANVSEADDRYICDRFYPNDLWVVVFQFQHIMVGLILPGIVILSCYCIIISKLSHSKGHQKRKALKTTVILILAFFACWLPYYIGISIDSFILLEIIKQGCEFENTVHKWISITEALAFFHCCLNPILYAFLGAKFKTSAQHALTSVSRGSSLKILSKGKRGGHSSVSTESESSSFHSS
# Experimental: as §1
# LgBiT-CXCR4 [4] = target: T2, LgBiT-CXCR4; assay: NanoBiT saturation binding (complemented luminescence) in HEK293 cells stably expressing LgBiT-CXCR4; conditions: for prevention of VUN400-HiBiT binding to LgBiT-CXCR4: fixed concentration: 100 nM CXCL12, 10 μM AMD3100 or 10 μM IT1t (Figure 3E)
# Experimental: Saturation binding with VUN400-HiBiT was performed on HEK 293 cells stably expressing the LgBiT-CXCR4 receptor. Cells were plated at 30,000 cells/well in white 96-well plates previously coated with poly-D-lysine (10 μg/ml in PBS) in 100 μl complete media (DMEM with 10% FCS). After 24 hours, the media was removed and replaced with 100 μl HBSS containing VUN400-HiBiT within the range of 4-500 nM. Where used, CXCL12, AMD3100 or IT1t were also added at this point. The plate was incubated for two hours at 37°C. Furimazine (1:400 final concentration) was added to each well and the plate was incubated for a further 15 minutes at 37°C. Luminescence was measured using the PHERAstar FS plate reader.
# Saturation binding curves of VUN400-HiBiT were fitted using the following equation: Specificbinding=Bmax×[B]/[B]+KD where Bmax is the maximal specific binding, [B] is the concentration of VUN400-HiBiT, and KD is the equilibrium dissociation constant (nM).
# LgBiT-CXCR4 [5] = target: T2, LgBiT-CXCR4; assay: NanoBiT association kinetic measurements (complemented luminescence) in HEK293 cells stably expressing LgBiT-CXCR4; assay type: binding; conditions: KD = koff/kon at LgBiT-CXCR4
# Experimental: Cells (30,000 per well) were plated in white 96-well poly-D-lysine coated plates (10 μg/ml in PBS) as described above. After 24 hours, media was removed and replaced with 50 μl HBSS containing furimazine (1:400 final concentration) and incubated at 37°C for 10 minutes and basal luminescence was measured. […] The resulting luminescence was measured over 60 minutes at 37°C. Luminescence was measured using the PHERAstar FS plate reader.
# Nanobody binding association kinetic data were fitted to the following mono-exponential association function: Y=Ymax(1−e^−kobs.t) where Ymax is the specific binding at infinite time, t is the time of incubation, and kobs is the rate constant for the observed rate of association.
# kon and koff values were determined by simultaneously fitting nanobody binding association kinetic curves obtained at different nanobody concentrations (L) to the equation above with the relationship between kobs and the two kinetic binding rate constants kon and koff given by: kon=kobs−koff/L
# Kinetically determined nanobody KD values were determined with the following equation: KD=koff/kon
# SNAP-CXCR4 [6] = target: T4, SNAP-CXCR4; assay: TR-FRET saturation ligand binding at SNAP-CXCR4; set-up: expressed in transfected cells; host or cells: HEK293G cells stably expressing SNAP-CXCR4 (gift of Dr. J. Goulding, University of Nottingham)
# Excerpt: Saturation binding of VUN400-HiBiT a t th e
# experiment is representative of five separate experiments.
# Supplementary Figure 2 (related to Figure 5).
# This single experiment is representative of five separate experiments.
# LgBiT-CXCR4 [7] = target: T2, LgBiT-CXCR4; assay: NanoBRET saturation binding at complemented LgBiT-CXCR4 in HEK293 cells; conditions: non-specific binding defined with 10 μM AMD3100, 2 h 37°C
# Experimental: Saturation NanoBRET binding assays were performed on HEK 293 cells stably expressing the LgBiT-CXCR4 receptor. Cells were plated at 30,000 cells/well in white 96-well plates (Greiner) previously coated with 50 μl poly-D-lysine (mol wt: 70-150 kDa; 10 μg/ml in PBS) in 100 μl complete media (DMEM with 10% FCS). After 24 hours, the media was removed from each well and replaced with 100 μl HEPES-buffered saline solution (HBSS; 145 mM NaCl, 5 mM KCl, 1.3 mM CaCl2, 1 mM MgSO4, 10 mM HEPES, 2 mM sodium pyruvate, 1.5 mM NaHCO3, 10 mM D-glucose, pH 7.45) containing 10 nM purified HiBiT-HaloTag (Promega) and incubated at 37°C for 30 minutes. This was sufficient time for HiBiT-LgBiT complementation to occur, forming the fully complemented NanoLuc enzyme. The HBSS was then aspirated and the cells washed three times with 100 μl HBSS. […] Cells were incubated for 2 hours at 37°C in the dark. The NanoLuc substrate furimazine (Promega) was added to each well (1:400 final concentration) and allowed to equilibrate for 5 minutes at 37°C prior to reading. Luminescence signals were measured at two wavelengths using a PHERAstar FS plate reader (BMG Labtech, UK) at room temperature. Filtered light was simultaneously measured using 460 nm (80-nm bandpass) and >610 nm longpass filters. The resulting BRET ratio was calculated by dividing the >610 nm emission by the 460 nm emission.
# LgBiT-CXCR4 [8] = target: T2, LgBiT-CXCR4; assay: CXCL12-AF647 dissociation kinetics (NanoBRET) at complemented LgBiT-CXCR4; assay type: binding
# Experimental: Nanobody and CXCL12-AF647 dissociation kinetic measurements were performed in membranes isolated from HEK293 LgBiT-CXCR4 cells. Briefly, 10 μg LgBiT-CXCR4 membranes were plated in white 96-well plates containing furimazine (1:400 final concentration) and incubated at 37°C for 10 minutes. […] Increasing concentrations of VUN400-HiBiT or CXCL12-AF647 were added to the wells and luminescence (VUN400-HiBiT) or the BRET ratio (CXCL12-AF647) were measured. […] The BRET ratio was calculated as described above. Both the BRET ratio and luminescence were measured using the PHERAstar FS plate reader.
# For nanobody dissociation experiments were fitted to the following mono-exponential decay equation: Y=(Y0−NS)^−k.t+NS where Y0 is the nanobody binding at the time of ligand addition (t0), NS is the nanobody bound at infinite time, and k is the rate constant of nanobody dissociation.
# SNAP-CXCR4 [9] = target: T4, SNAP-CXCR4; conditions: 10 μM AMD3100 (Figure S1)
# Excerpt: Data are mean ± SEM from triplicate determinations in a single experiment. This single
# Data are mean ± SEM from triplicate determinations in a single experiment.
# [10] = target: T1, LgBiT-tagged human CXCR4 receptor; assay: split reporter (BiFC, NanoBiT); association kinetics; increasing concentrations of HiBiT added to HEK293 cells stably expressing LgBiT-CXCR4 in HBSS with furimazine; luminescence over 60 minutes at 37°C; global fit of kon and koff, KD = koff/kon; conditions: one partner purified
# [11] = 20 nM VUN400-HiBiT, (a) pre-incubation with VUN400-HiBiT
# [12] = 20 nM VUN400-HiBiT, (b) simultaneous addition
# [13] = 20 nM VUN400-HiBiT, (b) simultaneous addition, 2 h 37°C
# [14] = 20 nM VUN400-HiBiT, (c) pre-incubation with ligands
# [15] = (c) pre-incubation with ligands 2 h 37°C, then 20 nM VUN400-HiBiT 30 min
# [16] = inhibition of 20 nM VUN400-HiBiT binding, (a) pre-incubation with VUN400-HiBiT 30 min, then ligand 2 h 37°C
Molecule,Maximum Inhibition (% 10 μM AMD3100) (LgBiT-CXCR4 [1]; [11]),Maximum Inhibition (% 10 μM AMD3100) (LgBiT-CXCR4 [1]; [12]),Maximum Inhibition (% 10 μM AMD3100) (LgBiT-CXCR4 [1]; [14]),displacement of VUN400-HiBiT from endogenous CXCR4 [2],Maximum Inhibition (% 10 μM AMD3100) (SNAP-CXCR4 [3]; [11]),Maximum Inhibition (% 10 μM AMD3100) (SNAP-CXCR4 [3]; [12]),Maximum Inhibition (% 10 μM AMD3100) (SNAP-CXCR4 [3]; [14]),prevention of VUN400-HiBiT binding to LgBiT-CXCR4 (LgBiT-CXCR4 [4]),other results
"CXCL12: chemokine ligand, endogenous orthosteric agonist of CXCR4 (PeproTech)",98.2 ± 0.2 % 10 μM AMD3100,98.8 ± 0.3 % 10 μM AMD3100,111.5 ± 3.1 ^c % 10 μM AMD3100,displaced,93.3 ± 8.7 % 10 μM AMD3100,92.8 ± 6.7 % 10 μM AMD3100,67.7 ± 11.6 ^c % 10 μM AMD3100,prevented,pIC50 (Mean ± SEM) (LgBiT-CXCR4 [1]; [13]): 8.74 ± 0.13; pIC50 (Mean ± SEM) (LgBiT-CXCR4 [1]; [15]): 9.03 ± 0.02; pIC50 (Mean ± SEM) (LgBiT-CXCR4 [1]; [16]): 8.82 ± 0.12; pIC50 (Mean ± SEM) (SNAP-CXCR4 [3]; [13]): 8.05 ± 0.21 ^a; pIC50 (Mean ± SEM) (SNAP-CXCR4 [3]; [15]): 8.05 ± 0.41; pIC50 (Mean ± SEM) (SNAP-CXCR4 [3]; [16]): 8.14 ± 0.28 ^a
"CC1(C)CN2C(CSC(=NC3CCCCC3)NC3CCCCC3)=CSC2=N1.Cl.Cl [IT1t, N,N’-Dicyclohexylcarbamimidothioic acid (5,6-dihydro-6,6-dimethylimidazo[2,1-b]thiazol-3-yl)methyl ester dihydrochloride]",104.4 ± 4.5 % 10 μM AMD3100,96.5 ± 0.4 % 10 μM AMD3100,79.9 ± 3.1 ^c % 10 μM AMD3100,displaced,107.1 ± 4.8 % 10 μM AMD3100,106.8 ± 11.5 % 10 μM AMD3100,102.3 ± 3.6 % 10 μM AMD3100,prevented,–
"HiBiT: purified HiBiT-HaloTag fusion protein, circa 34 kDa (Promega)",–,–,–,–,–,–,–,–,"saturation binding (in words) (LgBiT-CXCR4 [4]; increasing concentrations added to HEK LgBiT-CXCR4 cells): linear, indicative of low affinity; pKD (determined from kinetic rate constants) (LgBiT-CXCR4 [5]): 6.4"
"CXCL12-AF647: fluorescently labeled CXCL12, fluorescent orthosteric agonist (Almac)",–,–,–,–,–,–,–,–,"pKD (SNAP-CXCR4 [6]): 7.99 ± 0.10; pKD (LgBiT-CXCR4 [7]): 7.80 ± 0.08; koff (LgBiT-CXCR4 [8]; 10 nM CXCL12-AF647, after addition of 1 μM CXCL12): 0.32 ± 0.03 min⁻¹; koff (LgBiT-CXCR4 [8]; 10 nM CXCL12-AF647, after addition of 10 μM AMD3100): 0.42 ± 0.04 min⁻¹"
c1cc(CN2CCCNCCNCCCNCC2)ccc1CN1CCCNCCNCCCNCC1 [AMD3100],100 % 10 μM AMD3100,100 % 10 μM AMD3100,100 % 10 μM AMD3100,displaced,100 % 10 μM AMD3100,100 % 10 μM AMD3100,100 % 10 μM AMD3100,prevented,effect on VUN400-HiBiT bioluminescence signal at SNAP-CXCR4 (SNAP-CXCR4 [9]): able to reduce the bioluminescence signals
B1,–,–,–,–,–,–,–,–,koff [10]: 0.00367 s⁻¹; kon [10]: 10000 M⁻¹ s⁻¹; pKD [10]: 6.43 ± 0.13
